# Results taken from IntAct's records for PubMed 29858488.
# B1: Motile sperm domain-containing protein 2 (Homo sapiens), Q8NHP6 (parent)
# chain: MAENHAQNKAKLISETRRRFEAEYVTDKSDKYDARDVERLQQDDNWVESYLSWRHNIVDETLKMLDESFQWRKEISVNDLNESSIPRWLLEIGVIYLHGYDKEGNKLFWIRVKYHVKDQKTILDKKKLIAFWLERYAKRENGKPVTVMFDLSETGINSIDMDFVRFIINCFKVYYPKYLSKIVIFDMPWLMNAAFKIVKTWLGPEAVSLLKFTSKNEVQDYVSVEYLPPHMGGTDPFKYSYPPLVDDDFQTPLCENGPITSEDETSSKEDIESDGKETLETISNEEQTPLLKKINPTESTSKAEENEKVDSKVKAFKKPLSVFKGPLLHISPAEELYFGSTESGEKKTLIVLTNVTKNIVAFKVRTTAPEKYRVKPSNSSCDPGASVDIVVSPHGGLTVSAQDRFLIMAAEMEQSSGTGPAELTQFWKEVPRNKVMEHRLRCHTVESSKPNTLTLKDNAFNMSDKTSEDICLQLSRLLESNRKLEDQVQRCIWFQQLLLSLTMLLLAFVTSFFYLLYS
# partner: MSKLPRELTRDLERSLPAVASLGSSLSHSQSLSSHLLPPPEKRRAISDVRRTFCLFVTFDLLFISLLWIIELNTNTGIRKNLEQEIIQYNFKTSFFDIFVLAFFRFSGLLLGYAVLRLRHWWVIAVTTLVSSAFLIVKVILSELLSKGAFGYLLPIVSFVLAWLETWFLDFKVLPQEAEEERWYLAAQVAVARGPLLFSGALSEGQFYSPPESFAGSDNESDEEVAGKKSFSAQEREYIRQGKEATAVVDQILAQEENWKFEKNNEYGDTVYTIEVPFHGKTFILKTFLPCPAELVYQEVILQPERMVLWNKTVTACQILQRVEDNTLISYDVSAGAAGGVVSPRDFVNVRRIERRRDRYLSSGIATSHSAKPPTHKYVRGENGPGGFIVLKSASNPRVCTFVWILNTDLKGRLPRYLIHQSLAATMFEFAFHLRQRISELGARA
# B2: Motile sperm domain-containing protein 2 (Homo sapiens), Q8NHP6 (parent)
# chain: B1 chain
# partner: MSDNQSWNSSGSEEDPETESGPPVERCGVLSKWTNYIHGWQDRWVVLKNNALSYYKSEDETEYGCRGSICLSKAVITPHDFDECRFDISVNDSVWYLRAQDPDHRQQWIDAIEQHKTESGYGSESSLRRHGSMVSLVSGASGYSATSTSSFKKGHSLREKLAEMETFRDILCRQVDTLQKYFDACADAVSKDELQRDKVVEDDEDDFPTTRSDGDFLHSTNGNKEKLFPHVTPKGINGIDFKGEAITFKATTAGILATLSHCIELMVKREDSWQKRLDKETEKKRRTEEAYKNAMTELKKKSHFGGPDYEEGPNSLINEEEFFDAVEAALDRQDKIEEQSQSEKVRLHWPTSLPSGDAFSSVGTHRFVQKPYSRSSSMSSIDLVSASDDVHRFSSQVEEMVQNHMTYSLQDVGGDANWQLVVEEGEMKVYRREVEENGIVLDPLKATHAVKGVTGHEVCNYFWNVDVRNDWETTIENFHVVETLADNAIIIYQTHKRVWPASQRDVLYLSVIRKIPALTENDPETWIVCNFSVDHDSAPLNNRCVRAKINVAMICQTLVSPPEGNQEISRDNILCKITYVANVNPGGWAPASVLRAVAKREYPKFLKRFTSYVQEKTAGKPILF
# B3: Ceramide transfer protein (Homo sapiens), Q9Y5P4 (parent)
# chain: B2 partner
# partner: B1 chain
# B4: STARD3 N-terminal-like protein (Homo sapiens), O95772 (parent)
# chain: MNHLPEDMENALTGSQSSHASLRNIHSINPTQLMARIESYEGREKKGISDVRRTFCLFVTFDLLFVTLLWIIELNVNGGIENTLEKEVMQYDYYSSYFDIFLLAVFRFKVLILAYAVCRLRHWWAIALTTAVTSAFLLAKVILSKLFSQGAFGYVLPIISFILAWIETWFLDFKVLPQEAEEENRLLIVQDASERAALIPGGLSDGQFYSPPESEAGSEEAEEKQDSEKPLLEL
# partner: B1 chain
# B5: Oxysterol-binding protein-related protein 1 (Homo sapiens), Q9BXW6 (parent)
# chain: MNTEAEQQLLHHARNGNAEEVRQLLETMARNEVIADINCKGRSKSNLGWTPLHLACYFGHRQVVQDLLKAGAEVNVLNDMGDTPLHRAAFTGRKELVMLLLEYNADTTIVNGSGQTAKEVTHAEEIRSMLEAVERTQQRKLEELLLAAAREGKTTELTALLNRPNPPDVNCSDQLGNTPLHCAAYRAHKQCALKLLRSGADPNLKNKNDQKPLDLAQGAEMKHILVGNKVIYKALKRYEGPLWKSSRFFGWRLFWVVLEHGVLSWYRKQPDAVHNIYRQGCKHLTQAVCTVKSTDSCLFFIKCFDDTIHGFRVPKNSLQQSREDWLEAIEEHSAYSTHYCSQDQLTDEEEEDTVSAADLKKSLEKAQSCQQRLDREISNFLKMIKECDMAKEMLPSFLQKVEVVSEASRETCVALTDCLNLFTKQEGVRNFKLEQEQEKNKILSEALETLATEHHELEQSLVKGSPPASILSEDEFYDALSDSESERSLSRLEAVTARSFEEEGEHLGSRKHRMSEEKDCGGGDALSNGIKKHRTSLPSPMFSRNDFSIWSILRKCIGMELSKITMPVIFNEPLSFLQRLTEYMEHTYLIHKASSLSDPVERMQCVAAFAVSAVASQWERTGKPFNPLLGETYELVRDDLGFRLISEQVSHHPPISAFHAEGLNNDFIFHGSIYPKLKFWGKSVEAEPKGTITLELLEHNEAYTWTNPTCCVHNIIVGKLWIEQYGNVEIINHKTGDKCVLNFKPCGLFGKELHKVEGYIQDKSKKKLCALYGKWTECLYSVDPATFDAYKKNDKKNTEEKKNSKQMSTSEELDEMPVPDSESVFIIPGSVLLWRIAPRPPNSAQMYNFTSFAMVLNEVDKDMESVIPKTDCRLRPDIRAMENGEIDQASEEKKRLEEKQRAARKNRSKSEEDWKTRWFHQGPNPYNGAQDWIYSGSYWDRNYFNLPDIY
# partner: B1 chain
# B6: Motile sperm domain-containing protein 2 (Homo sapiens), Q8NHP6 (parent)
# chain: B1 chain
# partner: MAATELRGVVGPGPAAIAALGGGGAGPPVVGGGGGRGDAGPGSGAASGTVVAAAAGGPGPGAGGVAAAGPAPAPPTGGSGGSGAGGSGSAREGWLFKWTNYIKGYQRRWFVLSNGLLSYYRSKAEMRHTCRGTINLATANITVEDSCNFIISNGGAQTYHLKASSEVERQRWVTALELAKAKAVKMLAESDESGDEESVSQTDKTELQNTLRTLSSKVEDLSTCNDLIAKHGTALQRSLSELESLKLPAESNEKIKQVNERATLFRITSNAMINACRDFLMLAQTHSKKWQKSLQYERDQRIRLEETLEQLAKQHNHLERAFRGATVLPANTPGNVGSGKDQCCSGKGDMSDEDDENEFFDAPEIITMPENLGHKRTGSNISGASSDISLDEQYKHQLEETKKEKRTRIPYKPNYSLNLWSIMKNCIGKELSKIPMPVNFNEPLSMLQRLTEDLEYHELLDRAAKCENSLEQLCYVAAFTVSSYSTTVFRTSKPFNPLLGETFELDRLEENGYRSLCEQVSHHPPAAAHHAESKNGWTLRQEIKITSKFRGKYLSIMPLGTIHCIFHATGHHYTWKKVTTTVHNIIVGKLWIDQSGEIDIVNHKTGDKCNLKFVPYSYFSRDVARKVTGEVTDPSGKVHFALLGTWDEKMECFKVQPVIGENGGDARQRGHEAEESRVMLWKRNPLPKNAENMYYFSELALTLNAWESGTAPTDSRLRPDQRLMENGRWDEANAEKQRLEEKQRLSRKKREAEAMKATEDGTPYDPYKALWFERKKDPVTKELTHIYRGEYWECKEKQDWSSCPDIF
# B7: Motile sperm domain-containing protein 2 (Homo sapiens), Q8NHP6 (parent)
# chain: B1 chain
# partner: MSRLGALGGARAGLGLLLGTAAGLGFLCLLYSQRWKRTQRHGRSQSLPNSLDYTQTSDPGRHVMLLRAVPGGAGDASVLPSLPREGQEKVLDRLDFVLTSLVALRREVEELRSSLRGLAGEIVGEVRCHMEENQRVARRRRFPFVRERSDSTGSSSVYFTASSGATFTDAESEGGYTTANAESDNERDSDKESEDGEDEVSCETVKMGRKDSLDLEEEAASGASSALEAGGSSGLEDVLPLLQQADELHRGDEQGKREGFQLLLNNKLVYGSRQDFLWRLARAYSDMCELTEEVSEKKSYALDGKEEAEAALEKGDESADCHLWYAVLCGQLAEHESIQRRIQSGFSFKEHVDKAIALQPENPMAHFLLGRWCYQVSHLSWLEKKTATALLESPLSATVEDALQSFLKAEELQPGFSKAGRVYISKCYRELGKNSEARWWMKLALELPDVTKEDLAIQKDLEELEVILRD
# B8: Motile sperm domain-containing protein 2 (Homo sapiens), Q8NHP6 (parent)
# chain: B1 chain
# partner: B5 chain
# B9: StAR-related lipid transfer protein 3 (Homo sapiens), Q14849 (parent)
# chain: B1 partner
# partner: B1 chain
# B10: Vesicle-associated membrane protein-associated protein A (Homo sapiens), Q9P0L0 (parent)
# chain: MASASGAMAKHEQILVLDPPTDLKFKGPFTDVVTTNLKLRNPSDRKVCFKVKTTAPRRYCVRPNSGIIDPGSTVTVSVMLQPFDYDPNEKSKHKFMVQTIFAPPNTSDMEAVWKEAKPDELMDSKLRCVFEMPNENDKLNDMEPSKAVPLNASKQDGPMPKPHSVSLNDTETRKLMEECKRLQGEMMKLSEENRHLRDEGLRLRKVAHSDKPGSTSTASFRDNVTSPLPSLLVVIAAIFIGFFLGKFIL
# partner: B5 chain
# B11: Motile sperm domain-containing protein 2 (Homo sapiens), Q8NHP6 (parent)
# chain: B1 chain
# partner: B4 chain
# Variants of: B1
# Settings: with star3_human STARD3, Q14849
row,effect of a mutation on the interaction,Variant
1,disrupting interaction strength,R404D;L406D

# Variants of: B2
# Settings: with cert_human CERT1, Q9Y5P4
row,effect of a mutation on the interaction,Variant
1,disrupting interaction strength,R404D;L406D

# Variants of: B3
# Settings: with mspd2_human MOSPD2, Q8NHP6
row,effect of a mutation on the interaction,Variant
1,disrupting interaction strength,D324A

# Variants of: B4
# Settings: with mspd2_human MOSPD2, Q8NHP6
row,effect of a mutation on the interaction,Variant
1,disrupting interaction strength,F208A;Y209A

# Variants of: B5
# Settings: with mspd2_human MOSPD2, Q8NHP6
row,effect of a mutation on the interaction,Variant
1,disrupting interaction strength,F476A;Y477A

# Variants of: B6
# Settings: with osbp1_human OSBP
row,effect of a mutation on the interaction,Variant
1,disrupting interaction strength,R404D;L406D

# Variants of: B7
# Settings: with rmd3_human RMDN3, Q96TC7
row,effect of a mutation on the interaction,Variant
1,disrupting interaction strength,R404D;L406D

# Variants of: B8
# Settings: with osbl1_human OSBPL1A
row,effect of a mutation on the interaction,Variant
1,disrupting interaction strength,R404D;L406D

# Variants of: B9
# Settings: with mspd2_human MOSPD2, Q8NHP6
row,effect of a mutation on the interaction,Variant
1,disrupting interaction strength,F207A;Y208A

# Variants of: B10
# Settings: with osbl1_human OSBPL1A
row,effect of a mutation on the interaction,Variant
1,disrupting interaction strength,K94D;M96D

# Variants of: B11
# Settings: with str3n_human STARD3NL
row,effect of a mutation on the interaction,Variant
1,disrupting interaction strength,R404D;L406D
